From article PMC7828216, “Identification and Functional Analysis of Apoptotic Protease Activating Factor-1 (Apaf-1) from Spodoptera litura” (Insects, 2021) come the findings set out here.

First the molecules themselves.
B1: Sl-caspase5-CARD (caspase recruitment domain of Spodoptera litura caspase-5, 1-132aa) (domain or fragment, UniProt R4I520 1-132, looked up)
chain: MQREHRDAIQSNFSSLVERTDLDSVVTALYEKGVFSEQMIEPYRNNSELERDRKRRLYMDVTRRGPHAFAHLVDTLGELGYWDLARDLDPDSPFSFSSQQRSHPIPQPKPADNDNFRSLSTSNRPRAEPNRI
notes: Sl-caspase-5 of Spodoptera litura (a homologue of mammalian caspase-9; Dronc), GenBank JQ768051; caspase recruitment domain, residues 1-132; Cloned with Nde I and Xho I in pET-22b; also called caspase-5-CARD domain
B2: Sl-Apaf-1-CARD (caspase recruitment domain of Spodoptera litura apoptotic protease activating factor-1, 1-88aa) (domain or fragment, UniProt A0A7T6ZKB7 1-88, looked up)
chain: MDKHKRLLLQKYQQDIIDDLDVAYVYDELFAKHVISAEEVDRMFSLTTRIDQTRFLLDSLIRNGTNGTYQVFVDSLQKDYGWLWEKLA
notes: caspase recruitment domain, residues 1-88; Cloned with Nde I and Xho I in pET-22b; also called Sl-Af88; Sl-Apaf-1-CARD domain protein fragment

The target of assay [1] is B2. Put plainly: ITC; Sl-Apaf-1-CARD at 50 µM, Sl-caspase-5-CARD at 450 µM; 10 mM HEPES, 100 mM NaCl, 2 mM DTT, pH 7.4; 20 °C; 20 injections; VP-ITC; which protein was in the cell is not said. The note with it: both partners purified. (ITC needs no label: the signal is the heat of the interaction.)
Assay [2] deals with B1. The assay is described as above. The note with it: both partners purified.

On to B1, for which, in assay [1], the dH is -15.5 kcal/mol and the “stoichiometry N” value was determined as 1.

Molecule B2 gave a Ka in assay [2] of 1.28e+06 M⁻¹.

The term stoichiometry N denotes the number of molecules, sites or subunits per partner or assembly.
